These results are taken from the Human Domainome abundance scans (Beltran et al. 2025).

± gives the uncertainty stated by the source.

B1: Far upstream element-binding protein 1, residues 98 to 169; numbered along this chain, Q96AE4 (parent)
chain: RSVMTEEYKVPDGMVGFIIGRGGEQISRIQQESGCKIQIAPDSGGLPERSCMLTGTPESVQSAKRLLDQIVE

The variants in this series derive from B1. Briefly: abundance fitness (aPCA) (normalised: wild type 0, dead -1); higher = more abundant; growth selection in yeast, the domain comes from the species named. The following applies: Homo sapiens.
RSVMTEEYKVPDGMVGFIIGRGGEQISRIQQESGCKIQIAPDSGGLPERSCMLTGTPESVDSAKRLLDQIVE [Q61D]: the abundance fitness came to 0.003 ± 0.04.
Regarding RSVMTEEYKVPDGMVGFIIGRGGEQISRIQQESGCKIQIAPDSGGLPERSCMLTGTPESVESAKRLLDQIVE [Q61E], the abundance fitness amounted to 0.052 ± 0.03.
Consider RSVMTEEYKVPDGMVGFIIGRGGEQISRIQQESGCKIQIAPDSGGLPERSCMLTGTPESVRSAKRLLDQIVE [Q61R], for which the abundance fitness is -0.002 ± 0.023.
As for RSVMTEEYKVPDGMVGFIIGRGGEQISRIQQESGCKIQIAPDSGGLPERSCMLTGTPESVISAKRLLDQIVE [Q61I], the figure is -0.029 ± 0.046.
As for RSVMTEEYKVPDGMVGFIIGRGGEQISRIQQESGCKIQIAPDSGGLPERSCMLTGTPISVQSAKRLLDQIVE [E58I], the figure is -0.069 ± 0.043; as for RSVMTEEYKVPDGMVGFIIGRGGEQISRIQQESGCKIQIAPDSGGLPERSCMLTGTPASVQSAKRLLDQIVE [E58A], -0.051 ± 0.029; as for RSVMTEEYKVPDGMVGFIIGRGGEQISRIQQESGCKIQIAPDSGGLPERSCMLTGTPQSVQSAKRLLDQIVE [E58Q], 0.001 ± 0.036.
As for RSVMTEEYKVPDGMVGFIIGRGGEQISRIQQESGCKIQIAPDSGGLPERSCMLTGTPRSVQSAKRLLDQIVE [E58R], the figure is -0.08 ± 0.024.
As for RSVMTEEYKVPDGMVGFIIGRGGEQISRIQQESGCKIQIAPDSGGLPERSCMLTGTPCSVQSAKRLLDQIVE [E58C], the abundance fitness is -0.17 ± 0.04.
As for RSVMTEEYKVPDGMVGFIIGRGGEQISRIQQESGCKIQIAPDSGGLPERSCMLTGTPYSVQSAKRLLDQIVE [E58Y], the figure is -0.05 ± 0.043.
As for RSVMTEEYKVPDGMVGFIIGRGGEQISRIQQESGCKIQIAPDSGGLPERSCMLTGTPPSVQSAKRLLDQIVE [E58P], the figure is -0.065 ± 0.034; as for RSVMTEEYKVPDGMVGFIIGRGGEQISRIQQESGCKIQIAPDSGGLPERSCMLTGTPLSVQSAKRLLDQIVE [E58L], -0.072 ± 0.027.
As for RSVMTEEYKVPDGMVGFIIGRGGEQISRIQQESGCKIQIAPDSGGLPERSCMLTGTPGSVQSAKRLLDQIVE [E58G], the figure is -0.05 ± 0.024.
As for RSVMTEEYKVPDGMVGFIIGRGGEQISRIQQESGCKIQIAPDSGGLPERSCMLTGTPSSVQSAKRLLDQIVE [E58S], the abundance fitness is -0.041 ± 0.029.
The same measure for RSVMTEEYKVPDGMVGFIIGRGGEQISRIQQESGCKIQIAPDSGGLPERSCMLTGTPDSVQSAKRLLDQIVE [E58D]: 0.03 ± 0.04; for RSVMTEEYKVPDGMVGFIIGRGGEQISRIQQESGCKIQIAPDSGGLPERSCMLTGTPVSVQSAKRLLDQIVE [E58V]: -0.075 ± 0.027; for RSVMTEEYKVPDGMVGFIIGRGGEQISRIQQESGCKIQIAPDSGGLPERSCMLTGTPHSVQSAKRLLDQIVE [E58H]: -0.052 ± 0.044.
The same measure for RSVMTEEYKVPDGMVGFIIGRGGEQISRIQQESGCKIQIAPDSGGLPERSCMLTGTPTSVQSAKRLLDQIVE [E58T]: -0.038 ± 0.032; for RSVMTEEYKVPDGMVGFIIGRGGEQISRIQQESGCKIQIAPDSGGLPERSCMLTGTPNSVQSAKRLLDQIVE [E58N]: -0.107 ± 0.049; for RSVMTEEYKVPDGMVGFIIGRGGEQISRIQQESGCKIQIAPDSGGLPERSCMLTGTPKSVQSAKRLLDQIVE [E58K]: -0.035 ± 0.034.
As for RSVMTEEYKVPDGMVGFIIGRGGEQISRIQQESGCKIQIAPDSGGLPERSCMLTGTPWSVQSAKRLLDQIVE [E58W], the figure is -0.125 ± 0.029; as for RSVMTEEYKVPDGMVGFIIGRGGEQISRIQQESGCKIQIAPDSGGLPERSCMLTGTPERVQSAKRLLDQIVE [S59R], -0.064 ± 0.024.
Turning to RSVMTEEYKVPDGMVGFIIGRGGEQISRIQQESGCKIQIAPDSGGLPERSCMLTGTPEFVQSAKRLLDQIVE [S59F], the abundance fitness is -0.428 ± 0.047.
The same measure for RSVMTEEYKVPDGMVGFIIGRGGEQISRIQQESGCKIQIAPDSGGLPERSCMLTGTPELVQSAKRLLDQIVE [S59L]: -0.401 ± 0.029.
The same measure for RSVMTEEYKVPDGMVGFIIGRGGEQISRIQQESGCKIQIAPDSGGLPERSCMLTGTPEHVQSAKRLLDQIVE [S59H]: -0.063 ± 0.038.
Regarding RSVMTEEYKVPDGMVGFIIGRGGEQISRIQQESGCKIQIAPDSGGLPERSCMLTGTPEVVQSAKRLLDQIVE [S59V], the abundance fitness is -0.116 ± 0.028.
As for RSVMTEEYKVPDGMVGFIIGRGGEQISRIQQESGCKIQIAPDSGGLPERSCMLTGTPEPVQSAKRLLDQIVE [S59P], the figure is -0.555 ± 0.037; as for RSVMTEEYKVPDGMVGFIIGRGGEQISRIQQESGCKIQIAPDSGGLPERSCMLTGTPETVQSAKRLLDQIVE [S59T], -0.058 ± 0.033.
The same measure for RSVMTEEYKVPDGMVGFIIGRGGEQISRIQQESGCKIQIAPDSGGLPERSCMLTGTPEMVQSAKRLLDQIVE [S59M]: -0.089 ± 0.034; for RSVMTEEYKVPDGMVGFIIGRGGEQISRIQQESGCKIQIAPDSGGLPERSCMLTGTPEWVQSAKRLLDQIVE [S59W]: -0.754 ± 0.042.
As for RSVMTEEYKVPDGMVGFIIGRGGEQISRIQQESGCKIQIAPDSGGLPERSCMLTGTPEKVQSAKRLLDQIVE [S59K], the figure is -0.046 ± 0.033; as for RSVMTEEYKVPDGMVGFIIGRGGEQISRIQQESGCKIQIAPDSGGLPERSCMLTGTPEIVQSAKRLLDQIVE [S59I], -0.252 ± 0.051.
For the variant RSVMTEEYKVPDGMVGFIIGRGGEQISRIQQESGCKIQIAPDSGGLPERSCMLTGTPEEVQSAKRLLDQIVE [S59E], the abundance fitness amounted to 0.012 ± 0.03.
On to RSVMTEEYKVPDGMVGFIIGRGGEQISRIQQESGCKIQIAPDSGGLPERSCMLTGTPEQVQSAKRLLDQIVE [S59Q], for which the abundance fitness is -0.017 ± 0.034.
RSVMTEEYKVPDGMVGFIIGRGGEQISRIQQESGCKIQIAPDSGGLPERSCMLTGTPEDVQSAKRLLDQIVE [S59D]: the abundance fitness is -0.053 ± 0.036.
For the variant RSVMTEEYKVPDGMVGFIIGRGGEQISRIQQESGCKIQIAPDSGGLPERSCMLTGTPECVQSAKRLLDQIVE [S59C], the abundance fitness is -0.071 ± 0.037.
The same measure for RSVMTEEYKVPDGMVGFIIGRGGEQISRIQQESGCKIQIAPDSGGLPERSCMLTGTPEYVQSAKRLLDQIVE [S59Y]: -0.376 ± 0.05.
The same measure for RSVMTEEYKVPDGMVGFIIGRGGEQISRIQQESGCKIQIAPDSGGLPERSCMLTGTPEGVQSAKRLLDQIVE [S59G]: -0.046 ± 0.023.
